B1: KNL1 residues 2,026–2,342 (domain or fragment)
chain: SAQNEREKLQIKIDEMDKILKKIDNCLTEMETETKNLEDEEKNNPVEEWDSEMRAAEKELEQLKTEEEELQRNLLELEVQKEQTLAQIDFMQKQRNRTEELLDQLSLSEWDVVEWSDDQAVFTFVYDTIQLTITFEESVVGFPFLDKRYRKIVDVNFQSLLDEDQAPPSSLLVHKLIFQYVEEKESWKKTCTTQHQLPKMLEEFSLVVHHCRLLGEEIEYLKRWGPNYNLMNIDINNNELRLLFSSSAAFAKFEITLFLSAYYPSVPLPSTIQNHVGNTSQDDIATILSKVPLENNYLKNVVKQIYQDLFQDCHFYH
B2: ZWINT (natural protein)
chain: MEAAETEAEAAALEVLAEVAGILEPVGLQEEAELPAKILVEFVVDSQKKDKLLCSQLQVADFLQNILAQEDTAKGLDPLASEDTSRQKAIAAKEQWKELKATYREHVEAIKIGLTKALTQMEEAQRKRTQLREAFEQLQAKKQMAMEKRRAVQNQWQLQQEKHLQHLAEVSAEVRERKTGTQQELDRVFQKLGNLKQQAEQERDKLQRYQTFLQLLYTLQGKLLFPEAEAEAENLPDDKPQQPTRPQEQSTGDTMGRDPGVSFKAVGLQPAGDVNLP
B3: Mis12 complex (Mis12C), full length: MIS12, PMF1, NSL1, DSN1 (complex)
chain 1: MSVDPMTYEAQFFGFTPQTCMLRIYIAFQDYLFEVMQAVEQVILKKLDGIPDCDISPVQIRKCTEKFLCFMKGHFDNLFSKMEQLFLQLILRIPSNILLPEDKCKETPYSEEDFQHLQKEIEQLQEKYKTELCTKQALLAELEEQKIVQAKLKQTLTFFDELHNVGRDHGTSDFRESLVSLVQNSRKLQNIRDNVEKESKRLKIS
chain 2: MAEASSANLGSGCEEKRHEGSSSESVPPGTTISRVKLLDTMVDTFLQKLVAAGSYQRFTDCYKCFYQLQPAMTQQIYDKFIAQLQTSIREEISDIKEEGNLEAVLNALDKIVEEGKVRKEPAWRPSGIPEKDLHSVMAPYFLQQRDTLRRHVQKQEAENQQLADAVLAGRRQVEELQLQVQAQQQAWQALHREQRELVAVLREPE
chain 3: MAGSPELVVLDPPWDKELAAGTESQALVSATPREDFRVRCTSKRAVTEMLQLCGRFVQKLGDALPEEIREPALRDAQWTFESAVQENISINGQAWQEASDNCFMDSDIKVLEDQFDEIIVDIATKRKQYPRKILECVIKTIKAKQEILKQYHPVVHPLDLKYDPDPAPHMENLKCRGETVAKEISEAMKSLPALIEQGEGFSQVLRMQPVIHLQRIHQEVFSSCHRKPDAKPENFITQIETTPTETASRKTSDMVLKRKQTKDCPQRKWYPLRPKKINLDT
chain 4: MTSVTRSEIIDEKGPVMSKTHDHQLESSLSPVEVFAKTSASLEMNQGVSEERIHLGSSPKKGGNCDLSHQERLQSKSLHLSPQEQSASYQDRRQSWRRASMKETNRRKSLHPIHQGITELSRSISVDLAESKRLGCLLLSSFQFSIQKLEPFLRDTKGFSLESFRAKASSLSEELKHFADGLETDGTLQKCFEDSNGKASDFSLEASVAEMKEYITKFSLERQTWDQLLLHYQQEAKEILSRGSTEAKITEVKVEPMTYLGSSQNEVLNTKPDYQKILQNQSKVFDCMELVMDELQGSVKQLQAFMDESTQCFQKVSVQLGKRSMQQLDPSPARKLLKLQLQNPPAIHGSGSGSCQ
B4: Ndc80 complex (Ndc80C): NDC80^HEC1, NUF2, SPC24, SPC25 (complex)
chain 1: MKRSSVSSGGAGRLSMQELRSQDVNKQGLYTPQTKEKPTFGKLSINKPTSERKVSLFGKRTSGHGSRNSQLGIFSSSEKIKDPRPLNDKAFIQQCIRQLCEFLTENGYAHNVSMKSLQAPSVKDFLKIFTFLYGFLCPSYELPDTKFEEEVPRIFKDLGYPFALSKSSMYTVGAPHTWPHIVAALVWLIDCIKIHTAMKESSPLFDDGQPWGEETEDGIMHNKLFLDYTIKCYESFMSGADSFDEMNAELQSKLKDLFNVDAFKLESLEAKNRALNEQIARLEQEREKEPNRLESLRKLKASLQGDVQKYQAYMSNLESHSAILDQKLNGLNEEIARVELECETIKQENTRLQNIIDNQKYSVADIERINHERNELQQTINKLTKDLEAEQQKLWNEELKYARGKEAIETQLAEYHKLARKLKLIPKGAENSKGYDFEIKFNPEAGANCLVKYRAQVYVPLKELLNETEEEINKALNKKMGLEDTLEQLNAMITESKRSVRTLKEEVQKLDDLYQQKIKEAEEEDEKCASELESLEKHKHLLESTVNQGLSEAMNELDAVQREYQLVVQTTTEERRKVGNNLQRLLEMVATHVGSVEKHLEEQIAKVDREYEECMSEDLSENIKEIRDKYEKKATLIKSSEE
chain 2: METLSFPRYNVAEIVIHIRNKILTGADGKNLTKNDLYPNPKPEVLHMIYMRALQIVYGIRLEHFYMMPVNSEVMYPHLMEGFLPFSNLVTHLDSFLPICRVNDFETADILCPKAKRTSRFLSGIINFIHFREACRETYMEFLWQYKSSADKMQQLNAAHQEALMKLERLDSVPVEEQEEFKQLSDGIQELQQSLNQDFHQKTIVLQEGNSQKKSNISEKTKRLNELKLSVVSLKEIQESLKTKIVDSPEKLKNYKEKMKDTVQKLKNARQEVVEKYEIYGDSVDCLPSCQLEVQLYQKKIQDLSDNREKLASILKESLNLEDQIESDESELKKLKTEENSFKRLMIVKKEKLATAQFKINKKHEDVKQYKRTVIEDCNKVQEKRGAVYERVTTINQEIQKIKLGIQQLKDAAEREKLKSQEIFLNLKTALEKYHDGIEKAAEDSYAKIDEKTAELKRKMFKMST
chain 3: MAAFRDIEEVSQGLLSLLGANRAEAQQRRLLGRHEQVVERLLETQDGAEKQLREILTMEKEVAQSLLNAKEQVHQGGVELQQLEAGLQEAGEEDTRLKASLLQLTRELEELKEIEADLERQEKEVDEDTTVTIPSAVYVAQLYHQVSKIEWDYECEPGMVKGIHHGPSVAQPIHLDSTQLSRKFISDYLWSLVDTEW
chain 4: MVEDELALFDKSINEFWNKFKSTDTSCQMAGLRDTYKDSIKAFAEKLSVKLKEEERMVEMFLEYQNQISRQNKLIQEKKDNLLKLIAEVKGKKQELEVLTANIQDLKEEYSRKKETISTANKANAERLKRLQKSADLYKDRLGLEIRKIYGEKLQFIFTNIDPKNPESPFMFSLHLNEARDYEVSDSAPHLEGLAEFQENVRKTNNFSAFLANVRKAFTATVYN

Experiment [1] has as its target B3. Nature of the experiment: BLI.
Another experiment addresses Mis12C^M2 (human, UniProt Q9H081 1-205; Q6P1K2 1-205; Q96IY1 1-281; Q9H410 1-356). Nature of the experiment: ITC. A general note: Isothermal titration calorimetry measures the heat released or taken up as one component is titrated into another.
Another experiment concerns the target Mis12C^M1 (human, UniProt Q9H081 1-205; Q6P1K2 1-205; Q96IY1 1-281; Q9H410 1-356). The experiment can be described thus: ITC.
Experiment [2] has as its target T1, KNL1 (construct of the BLI titrations with ZWINT) (human, UniProt Q8NG31).
T1 chain: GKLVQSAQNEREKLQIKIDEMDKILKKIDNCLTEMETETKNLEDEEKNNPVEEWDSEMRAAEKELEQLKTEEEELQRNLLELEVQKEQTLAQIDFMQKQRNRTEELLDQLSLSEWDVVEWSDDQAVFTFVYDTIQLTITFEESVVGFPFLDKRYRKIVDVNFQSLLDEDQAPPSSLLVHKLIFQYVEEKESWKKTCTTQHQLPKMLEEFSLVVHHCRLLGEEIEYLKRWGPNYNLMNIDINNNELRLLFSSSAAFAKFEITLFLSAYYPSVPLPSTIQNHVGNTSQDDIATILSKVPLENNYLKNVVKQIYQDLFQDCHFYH
Nature of the experiment: BLI; Kd1. On the technique in general: BLI is a label-free optical method that tracks binding on a fibre tip over time.

Experiment [3] addresses T1, KNL1 (construct of the BLI titrations …). Nature of the experiment: BLI; Kd2 (second site).
Another experiment has as its target SPC24/SPC25^L154A-L176A (human, UniProt Q8NBT2 1-197; Q9HBM1 1-224, L154A | L176A). The experiment can be described thus: ITC.
A further experiment has as its target SPC24^Y138A/SPC25 (human, UniProt Q8NBT2 1-197; Q9HBM1 1-224, Y138A). The experiment can be described thus: ITC.
Another experiment addresses KNL1^M2 (human, UniProt Q8NG31). The experiment can be described thus: ITC.
The target in the next experiment is KNL1^M1 (human, UniProt Q8NG31). Nature of the experiment: ITC.
The target of experiment [4] is T2, Mis12C with KNL1_(2,026–2,342) bound (human, UniProt Q9H081 1-205; Q6P1K2 1-205; Q96IY1 1-281; Q9H410 1-356; Q8NG31 2026-2342).
T2 chain 1: B3 chain 1
T2 chain 2: B3 chain 2
T2 chain 3: B3 chain 3
T2 chain 4: B3 chain 4
T2 chain 5: B1 chain
The experiment can be described thus: BLI.

Experiment [5] concerns the target T2, Mis12C with KNL1_(2,026–2,342) bound. Nature of the experiment: BLI.

Usually koff stands for a measure of how fast the partners let go of each other. Lower therefore signals slow dissociation. As usually defined, the Kd is the constant that tells how readily two partners part at equilibrium. High values mean lower affinity, low ones higher affinity. Turning to B1, in experiment [1], the koff was found to be 0.000451 s⁻¹. The Kd in the experiment with Mis12C^M2 stood at 24.8 nM; with Mis12C^M1, 45.2 nM.
Regarding B2, the Kd in experiment [2] was 81.8 nM; in experiment [3], 65.3 nM.
Turning to B3, the Kd in the experiment with SPC24/SPC25^L154A-L176A was found to be 1270 nM; with SPC24^Y138A/SPC25 it was 295 nM; with KNL1^M2, 109 nM; with KNL1^M1 it was 140 nM.
As for B4, binding in experiment [4] was characterised by a dissociation constant (Kd) of 1.15 nM. The values for the koff in [1] and in experiment [5] were 0.000582 s⁻¹ and 0.00024 s⁻¹, respectively.

(Values after paper PMC11189300 (2024).)
